Blank lines part the entries; values can stand above or below the binder they belong to.
How the values were obtained:
human Dll1 [1] = target: T1, human Dll1 (human, UniProt O00548 18-723); test: FACS, 15 µg/ml, 293T cells with human Dll1 vs mock
T1 construct: whole, on cells
T1 sequence (looked up): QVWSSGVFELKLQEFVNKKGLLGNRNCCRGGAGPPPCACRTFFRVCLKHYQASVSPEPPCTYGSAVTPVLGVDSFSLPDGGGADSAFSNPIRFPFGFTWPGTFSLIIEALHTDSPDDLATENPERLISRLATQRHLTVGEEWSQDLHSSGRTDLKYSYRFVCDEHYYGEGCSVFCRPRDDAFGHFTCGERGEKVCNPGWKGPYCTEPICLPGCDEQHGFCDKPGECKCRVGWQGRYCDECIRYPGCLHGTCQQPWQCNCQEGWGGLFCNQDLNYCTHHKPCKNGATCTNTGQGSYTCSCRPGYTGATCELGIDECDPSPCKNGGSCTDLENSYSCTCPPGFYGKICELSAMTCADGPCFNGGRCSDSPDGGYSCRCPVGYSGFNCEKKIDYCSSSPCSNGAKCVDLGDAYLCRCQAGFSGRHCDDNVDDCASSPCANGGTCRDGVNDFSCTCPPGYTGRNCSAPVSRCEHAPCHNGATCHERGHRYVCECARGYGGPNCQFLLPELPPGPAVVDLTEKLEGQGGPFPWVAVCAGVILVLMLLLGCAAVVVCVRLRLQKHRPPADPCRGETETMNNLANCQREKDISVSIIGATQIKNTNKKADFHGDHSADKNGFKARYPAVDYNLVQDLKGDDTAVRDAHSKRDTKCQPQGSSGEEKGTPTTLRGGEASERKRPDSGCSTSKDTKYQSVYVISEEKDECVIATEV
Method: (§1) The ability of the purified antibodies to bind to human Jagged1 and Dll1 was determined by FACS analysis. […] Cells were resuspended in PBS containing 2% FCS and seeded at 50000 cells/well into V-bottomed plates. Anti-DLL4 antibodies diluted in PBS containing 2% FCS were added at a final concentration of 5 or 15 μg/ml and plates were incubated for 1 h at 4° C. […] Data was analyzed by comparing the shift in geometric mean fluorescence in the mock-transfected cells to that observed in the Jagged1- or Dll1-transfected cells and is shown in Tables 16 and 17.

full length human DLL4 [2] = target: T2, full length human DLL4 (human, UniProt Q9NR61 27-685); test: FMAT, hybridoma supernatant, 293T cells with human DLL4; FMAT, hybridoma supernatant, native full length human DLL4 on live 293T cells, room temperature
T2 construct: whole, on cells; also called native DLL4 expressed in HEK293 cells
Method: (§2) Cells diluted in PBS containing 2% FBS were seeded at a density of 3000 expressing and 15000 mock transfected cells per well in 384 well plates (Corning Costar, catalog #3712). Immediately after plating, 15 or 20 μl/well of hybridoma supernatants and 10 μl/well of secondary antibody (Goat anti-human IgG Fc Cy5, final concentration 750 ng/ml) were added and plates incubated for 3 h at room temperature prior to reading the fluorescence on the FMAT 8200 instrument (Applied Biosystems). The binding of human Notch1/Fc chimera (R&D systems, catalog #3647-TK), diluted 1:2 from 2.86 μg/ml was used as a positive control for DLL4 and human Notch3/Fc chimera diluted from 10 μg/ml was used a positive control for binding to Jagged1. Results for 12 hybridoma supernatants showing binding of hybridoma supernatants to human/cynomolgus monkey DLL4 and human Jagged are shown in Table 3.

full length human DLL4 [3] = target: T2, full length human DLL4; test: FMAT competition, supernatant vs Alexa-647 human Notch1/Fc, 293T cells with human DLL4; FMAT competition with Alexa-647 human Notch1/Fc, native human DLL4 on 293T cells, 4 C, n = 2
Method: (§3) Transfected and untransfected 239T cells were reconstituted in PBS containing 2% FCS and 5000 transfected and 17500 non-transfected cells were plated in 20 μl into wells of a 384-well tissue culture plate (Corning Costar, catalog #3712). Subsequently, 20 μl of hybridoma supernatant was added and plates were incubated at 4° C. for 1 h, at which time 20 μl of Alexa-647 labeled human Notch1/Fc was added at a final concentration of 6.7 ng/ml. After a further 3 h incubation at 4° C., the amount of bound Notch1/Fc was determined by reading the fluorescence in each well using an FMAT 8200 instrument (Applied Biosystems). Results are expressed as % inhibitions with the minimum inhibition in the assay being determined by the effects of non-DLL4 binding supernatants prepared in a similar way as described in example 2, and the maximum inhibition being defined as the signal obtained in the presence of a saturating concentration of unlabeled Notch1/Fc. N.T.=not tested

human Jagged1 [4] = target: T3, human Jagged1 (human, UniProt P78504 34-1218); test: FACS, 5 µg/ml, 293T cells with human Jagged1
T3 construct: whole, on cells
Method: as §1

human Jagged1 [5] = target: T3, human Jagged1; test: FACS, 5 µg/ml, 293T cells with human Jagged1 vs mock
Method: as §1

human Dll1 [6] = target: T1, human Dll1; test: FACS, 15 µg/ml, 293T cells with human Dll1
Method: as §1

human Jagged1 [7] = target: T3, human Jagged1; test: FMAT, hybridoma supernatant, 293T cells with human Jagged1
Method: as §2

full length human DLL4 [8] = target: T2, full length human DLL4; test: FMAT competition, purified antibody vs Alexa-647 human Notch1/Fc, 293T cells with human DLL4
Method: To discriminate between the purified antibodies based upon their ability to prevent the interaction between full-length recombinant DLL4 and soluble Notch1/Fc, the following assays were performed. Transfected and untransfected 239T cells were reconstituted in PBS containing 2% FCS and 5000 transfected and 17500 non-transfected cells were plated in 30 μl into wells of a 384-well tissue culture plate (Corning Costar, catalog #3712). Subsequently, 30 μl of purified antibodies, serial diluted from 5 μg/ml hybridoma supernatant was added and plates were incubated at 4° C. for 1 h, at which time 20 μl of 100 ng/ml Alexa-647 labeled human Notch1/Fc was added. After a further 3 h incubation at 4° C., the amount of bound Notch1/Fc was determined by reading the fluorescence in each well using an FMAT 8200 instrument (Applied Biosystems).

full length human DLL4 [9] = target: T2, full length human DLL4; test: FMAT competition, supernatant vs Alexa-647 human Notch1/Fc, 293T cells with human DLL4; FMAT competition with Alexa-647 human Notch1/Fc, native human DLL4 on 293T cells, 4 C, n = 3
Method: as §3

full length mouse DLL4 = target: T4, full length mouse DLL4 (mouse, UniProt Q9JI71 27-686); test: FACS competition vs rat Notch1/Fc, HEK293 cells with mouse DLL4
T4 construct: whole, on cells
Method: (§4) Further experiments were performed on selected antibodies using HEK293 cells that were stably transfected with either human, mouse or cynomolgus monkey DLL4 using retroviral constructs. In these experiments, anti-DLL4 antibodies (final concentration: 10-0.01 μg/ml) diluted in PBS containing 2% FCS were added to DLL4-expressing HEK 293 cells (50000 cells/well diluted in PBS containing 2% FCS) and incubated for 1 h at 4° C. Subsequently, Alexa-647 labeled human, rat or APC labeled mouse Notch1/Fc (e.g. R&D Systems, catalog #3647-TK-050, 1057-TK-050, 5267-TK-050, respectively) was added at a final concentration of 0.01-0.5 μg/ml and plates were incubated for a further 2 h at 4° C. prior to washing and reading on a FACSCalibur instrument.

[10] = target: T5, human soluble DLL4 (R&D systems catalog #1056-D4-050) (human, UniProt Q9NR61 27-524); test: Biacore T100, antibody immobilised, soluble human DLL4 as analyte
T5 construct: Catalog number as printed; perhaps the same product as #1506-D4; also called antigen DLL4
Method: For Biacore analysis, each purified anti-DLL4 antibody was immobilized on a CM5 sensor chip within a T100 using standard amine coupling. Immobilization levels were kept below 200 RU. The concentration of DLL4 was determined by UV-VIS spectroscopy using a molar absorptivity at 280 nm of 110, 440 M⁻¹cm⁻¹, which was calculated from the sequence of the protein using a method developed by Pace et al. (G. R. Grimsley and C. N. Pace (2003) in Current Protocols in Protein Science (John Wiley & Sons, Inc.), 3.1.1-3.1.9). The antigen DLL4 (R&D systems; human catalog #1056-D4-050 or mouse, catalog #1389-D4-050) was diluted to a starting concentration of 32-64 nM and tested in a 3-fold dilution series in triplicate. The running buffer contained HBS-P with 0.1 mg/ml BSA and binding responses were collected at 23° C. Bound complexes were regenerated with a 15 s pulse of 10 mM of sodium hydroxide. The response data were globally fitted with a simple 1:1 interaction model and Table 20 summarizes the kₐ, kd and KD estimates obtained for the anti-DLL4 antibodies when binding to human soluble DLL4 was assessed.

full length human DLL4 [11] = target: T2, full length human DLL4; test: FACS titration, HEK293 cells with human DLL4
Method: The binding affinities of the purified antibodies for DLL4 was estimated using is both FACS and BIAcore techniques. […] The cells were then washed and incubated with goat anti-human IgG-Fc-Cy5+5 μg/mL 7-Amino-Actinomycin (7AAD) for 30 minutes at 4° C.
In this equation, F=mean fluorescence, LT=total molecular mAb concentration, P′=proportionality constant that relates arbitrary fluorescence units to bound mAb, M=cellular concentration in molarity, n=number of receptors per cell, B=background signal, and KD=equilibrium dissociation constant. For each mAb titration curve an estimate for KD is obtained as P′, n, B, and KD are allowed to float freely in the nonlinear analysis. Table 20 summarizes the affinity estimates for the anti-DLL4 antibodies for human and cynomolgus monkey DLL4 derived using the methodology described above

full length human DLL4 [12] = target: T2, full length human DLL4; test: FACS competition vs human Notch1/Fc, HEK293 cells with human DLL4
Method: as §4

T3 sequence (P78504 34-1218): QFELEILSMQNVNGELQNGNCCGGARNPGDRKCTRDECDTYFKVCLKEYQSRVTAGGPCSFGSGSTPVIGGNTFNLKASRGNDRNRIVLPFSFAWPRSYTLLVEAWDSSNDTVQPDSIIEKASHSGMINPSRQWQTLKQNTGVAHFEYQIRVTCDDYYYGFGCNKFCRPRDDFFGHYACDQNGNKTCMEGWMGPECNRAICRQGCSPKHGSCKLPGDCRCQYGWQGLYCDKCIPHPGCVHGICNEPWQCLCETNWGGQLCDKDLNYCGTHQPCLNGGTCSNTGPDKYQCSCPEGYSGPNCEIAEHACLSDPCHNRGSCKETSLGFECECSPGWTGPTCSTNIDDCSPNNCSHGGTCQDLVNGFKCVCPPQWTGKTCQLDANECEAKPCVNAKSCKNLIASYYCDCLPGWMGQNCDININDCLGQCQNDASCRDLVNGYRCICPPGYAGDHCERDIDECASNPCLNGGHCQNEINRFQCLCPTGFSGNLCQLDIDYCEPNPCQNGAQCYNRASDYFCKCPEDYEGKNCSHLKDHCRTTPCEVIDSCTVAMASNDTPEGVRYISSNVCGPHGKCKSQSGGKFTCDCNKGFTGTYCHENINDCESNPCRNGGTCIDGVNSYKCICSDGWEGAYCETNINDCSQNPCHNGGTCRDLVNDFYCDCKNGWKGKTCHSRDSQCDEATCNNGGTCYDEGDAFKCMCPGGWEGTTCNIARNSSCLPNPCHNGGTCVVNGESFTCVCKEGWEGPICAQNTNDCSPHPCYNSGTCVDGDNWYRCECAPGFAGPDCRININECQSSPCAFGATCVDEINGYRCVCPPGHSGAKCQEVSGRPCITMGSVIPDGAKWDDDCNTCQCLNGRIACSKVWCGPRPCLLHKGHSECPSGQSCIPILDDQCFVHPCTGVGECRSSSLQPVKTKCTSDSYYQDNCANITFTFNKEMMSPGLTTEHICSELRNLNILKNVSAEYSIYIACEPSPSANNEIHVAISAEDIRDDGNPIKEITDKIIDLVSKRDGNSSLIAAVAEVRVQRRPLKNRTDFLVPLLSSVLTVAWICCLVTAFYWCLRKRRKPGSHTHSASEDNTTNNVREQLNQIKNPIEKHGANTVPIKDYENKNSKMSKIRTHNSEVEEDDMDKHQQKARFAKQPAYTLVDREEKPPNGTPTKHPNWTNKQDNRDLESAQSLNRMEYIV
T5 sequence (Q9NR61 27-524 limits assumed): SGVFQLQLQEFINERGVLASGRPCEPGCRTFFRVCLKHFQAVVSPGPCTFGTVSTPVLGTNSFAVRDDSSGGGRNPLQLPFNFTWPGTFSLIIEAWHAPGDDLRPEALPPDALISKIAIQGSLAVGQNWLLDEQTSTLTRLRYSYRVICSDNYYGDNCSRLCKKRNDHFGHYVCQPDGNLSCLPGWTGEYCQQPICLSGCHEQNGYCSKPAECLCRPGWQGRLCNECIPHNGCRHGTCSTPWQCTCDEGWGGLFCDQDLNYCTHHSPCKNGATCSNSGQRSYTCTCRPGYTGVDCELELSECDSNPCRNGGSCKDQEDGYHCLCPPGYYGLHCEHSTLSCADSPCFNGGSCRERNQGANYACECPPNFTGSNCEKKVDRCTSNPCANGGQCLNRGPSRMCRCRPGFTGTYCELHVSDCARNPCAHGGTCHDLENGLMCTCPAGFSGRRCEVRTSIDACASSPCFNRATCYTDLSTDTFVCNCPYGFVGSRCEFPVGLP
T2 sequence (Q9NR61 27-685): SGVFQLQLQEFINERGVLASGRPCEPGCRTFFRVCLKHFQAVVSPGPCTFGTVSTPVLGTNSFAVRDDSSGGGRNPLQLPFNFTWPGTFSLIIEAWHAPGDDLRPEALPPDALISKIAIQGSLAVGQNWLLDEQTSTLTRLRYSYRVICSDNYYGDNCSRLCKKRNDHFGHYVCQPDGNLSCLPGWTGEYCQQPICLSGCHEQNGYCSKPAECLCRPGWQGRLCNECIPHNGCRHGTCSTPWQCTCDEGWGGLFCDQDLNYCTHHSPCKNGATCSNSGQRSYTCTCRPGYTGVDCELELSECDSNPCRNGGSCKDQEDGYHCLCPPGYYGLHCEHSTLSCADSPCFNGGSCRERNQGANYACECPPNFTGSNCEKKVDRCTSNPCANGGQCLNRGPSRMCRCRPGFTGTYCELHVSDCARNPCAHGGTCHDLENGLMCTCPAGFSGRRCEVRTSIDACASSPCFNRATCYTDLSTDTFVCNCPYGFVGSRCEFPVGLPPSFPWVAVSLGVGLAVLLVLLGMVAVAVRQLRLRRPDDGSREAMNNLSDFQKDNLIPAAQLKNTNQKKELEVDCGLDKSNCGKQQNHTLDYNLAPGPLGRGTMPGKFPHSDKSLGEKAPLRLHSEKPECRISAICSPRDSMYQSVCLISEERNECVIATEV
T4 sequence (Q9JI71 27-686): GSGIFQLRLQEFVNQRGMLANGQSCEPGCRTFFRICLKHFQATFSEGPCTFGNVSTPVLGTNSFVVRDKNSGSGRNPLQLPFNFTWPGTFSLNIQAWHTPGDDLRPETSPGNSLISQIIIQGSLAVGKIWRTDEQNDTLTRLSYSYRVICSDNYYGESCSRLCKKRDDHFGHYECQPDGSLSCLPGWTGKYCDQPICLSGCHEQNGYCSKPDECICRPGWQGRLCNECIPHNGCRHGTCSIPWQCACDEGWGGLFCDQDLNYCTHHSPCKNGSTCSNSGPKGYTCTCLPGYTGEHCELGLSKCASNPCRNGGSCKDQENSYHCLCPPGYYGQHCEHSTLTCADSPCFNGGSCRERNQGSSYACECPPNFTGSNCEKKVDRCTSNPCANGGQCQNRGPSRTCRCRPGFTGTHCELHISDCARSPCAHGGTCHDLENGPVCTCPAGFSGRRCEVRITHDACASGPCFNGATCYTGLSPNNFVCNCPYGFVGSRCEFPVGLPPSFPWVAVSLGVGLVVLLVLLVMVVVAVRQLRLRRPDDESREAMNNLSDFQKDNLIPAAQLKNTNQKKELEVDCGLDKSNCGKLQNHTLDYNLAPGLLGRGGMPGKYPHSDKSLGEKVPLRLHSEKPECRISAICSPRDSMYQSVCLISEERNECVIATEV

Dll1/mock ratio (human Dll1 [1]): 1.34 | Count (full length human DLL4 [2]): 182 | FL1 (full length human DLL4 [2]): 10500 | FL1 x count (full length human DLL4 [2]): 1.9e+06 | % inhibition n = 2 (full length human DLL4 [3]): 88% | Jagged1/293T X Geo mean (human Jagged1 [4]): 16 | Jagged1/mock ratio (human Jagged1 [5]): 1.12 | Dll1/293T X Geo mean (human Dll1 [6]): 40 | Count (human Jagged1 [7]): 3 | FL1 (human Jagged1 [7]): 1500 | FL1 x count (human Jagged1 [7]): 4490 | % inhibition at 0.020 nM (full length human DLL4 [8]): -5% | % inhibition at 0.070 nM (full length human DLL4 [8]): 3% | % inhibition at 0.21 nM (full length human DLL4 [8]): -4% | % inhibition at 0.62 nM (full length human DLL4 [8]): -14% | % inhibition at 1.9 nM (full length human DLL4 [8]): 29% | % inhibition at 5.6 nM (full length human DLL4 [8]): 114% | % inhibition at 16.7 nM (full length human DLL4 [8]): 115% | IC50 (full length human DLL4 [8]): 2.02 nM | % inhibition n = 3 (full length human DLL4 [9]): 143%
B1: 20G8 (antibody, IgG4, V domains shown)
VH: QVQLVQSGAEVKKPGASVKVSCKASGYTFTSYGISWVRQAPGQGLEWMGWISVYNGNTNYAQKLQGRVTMTTDTSTSTAYMEVRSLRSDDTAVYYCARDRVPRIPRTTEAFDIWGRGTMVTVCS
VL: QSVLTQPPSASGTPGQRVTISCSGSSSNIGSYYVYWYQQLPGTAPKLLIYRDNQRPSGVPDRFSGSKSGTSASLAIRGLRSDDEADYYCAAWDDSLSGHWVFGGGTKLTVL
notes: Fully human; also used where no isotype is printed

IC50 (full length mouse DLL4): 15.6 nM | Kd [10]: 0.721 nM | koff [10]: 0.00016 s⁻¹ | kon [10]: 222000 M⁻¹ s⁻¹ | Kd (full length human DLL4 [11]): 0.225 nM | IC50 (full length human DLL4 [12]): 0.75 nM
B2: 21H3RK IgG2 (antibody, V domains shown)
VH: QVQLVQSGAEVKKPGASVKVSCKASGYTFTNYGITWVRQAPGQGPEWMGWISAYNGNTNYAQKLQDRVTVTTDTSTSTAYMELRSLRSDDTAVYYCARDRVPRIPVTTEAFDIWGQGTMVTVSS
VL: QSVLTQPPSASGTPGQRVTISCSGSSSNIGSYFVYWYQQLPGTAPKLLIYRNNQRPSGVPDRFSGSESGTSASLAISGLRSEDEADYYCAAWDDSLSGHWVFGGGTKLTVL
notes: IgG2

IC50 (full length mouse DLL4): 13.5 nM | Kd [10]: 0.598 nM | koff [10]: 0.000155 s⁻¹ | kon [10]: 259000 M⁻¹ s⁻¹ | Kd (full length human DLL4 [11]): 0.32 nM | IC50 (full length human DLL4 [12]): 0.73 nM
B3: 21H3 IgG2 (antibody, V domains shown)
VH: QVQLVQSGAEVKKPGASVKVSCKASGYTFTNYGITWVRQAPGQGPEWMGWISAYNGNTNYAQKLQDRVTVTTDTSTSTAYMELRSLRSDDTAVYYCARDRVPRIPVTTEAFDIWGQGTMVTVSS
VL: QSVLTQPPSASGTPGQRVTISCSGSSSNIGSYFVYWYQQLPGTAPKLLIYRNNQRPSGVPDRFSGSESGTSASLAISGLRSEDEADYYCAAWDDSLSGHWVFGGGTRLTVL
notes: Formatted as IgG2

From patent publication US20100196385A1 (AstraZeneca / MedImmune, published 2010)
